Data reported in the supplement of paper PMC10567573.

B1: PSD2 (parent)
chain: PLMGETQERERVLTHFSRRYCQCN

Variants of: B1
Assay: protein stability index of a GFP-peptide fusion (GPS, HEK-293T) (PSI 1-6); higher = more stable
Settings: c terminus: a fixed tail appended
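Further: lentivirally expressed fusions sorted by FACS into six bins by GFP to DsRed ratio, PSI derived from sequencing read proportions per bin multiplied by bin number.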

Protein stability index: each site, then its substitutions
P1: Y 3.12; S 2.98; L 1.67; Q 2.81; H 2.6; F 2.48; D 1.82; E 2.79; K 2.25; T 2.58; A 1.96; N 2.97
Y20: W 2.42; G 3.86; C 3.91; H 2.43; R 3.95; K 3.92; N 3.81; S 3.84; E 4.57; L 3; I 2.62; M 2.69
L2: M 2.56; Q 3.35; P 2.99; R 3.08; W 2.58; G 4.03; Y 1.9; S 3.19; C 3.52; K 2.57; D 3.37; F 2.41; E 3.91; I 3.17
R9: T 2.58; A 3.5; I 2.07; K 3.21; E 4.05; L 2.41; F 2.23; N 4.17; Q 2.18; G 2.98; V 2.94; S 2.49; Y 2.14; H 3.23
Q22: T 3.08; K 3.02; I 2.09; V 1.69; G 2.29; N 3.18; W 2.49; A 3.55; Y 2.08
H15: M 2.56; R 2.74; D 3.15; W 1.2; I 2.32; Y 2.44; P 2.6; T 3.03; K 3.41; S 3.18; A 2.62; F 1.47; C 2.9
C23: N 4.07; A 4.01; T 3.87; P 4.09; Q 4.39; L 2.9; M 2.92; K 4.92; R 3.6; V 3.56; W 2.67; I 2.99; Y 2.85; G 3.56
V12: G 3.1; T 3.73; F 3.5; I 3.05; N 2.99; C 4.07; W 3.26; A 3.49; Y 3.25; P 2.94; R 3.15; M 2.85; E 3.34; H 3.24
R18: D 4.01; F 1.99; T 3.09; M 2.14; V 2.02; L 2.24; I 2.27; Q 2.77; A 3.49; Y 1.97; C 1.77; K 3.09; H 3.96; N 3.06; P 3.01
N24: V 2.69; Y 2.22; Q 2.88; T 3.74; I 3.07; H 3.21; D 3.23; F 2.79; K 2.2; P 3.02
E10: I 2.1; T 2.07; Y 1.73; N 2.8; V 2.31; K 2.58; P 2.03; M 1.93; S 2.14; F 2.19; R 1.82; D 2.44
M3: D 3.69; F 2.77; P 2.72; L 3.15; H 3.22; C 2.61; S 2.97; E 3.3; Y 2; I 2.37; G 4; T 4.68
L13: W 2.7; R 4.15; P 3.19; G 3.52; T 2.65; E 3.6; I 3.55; C 4.49; S 2.52; K 3.57; A 2.71; N 2.93; M 3.3; Q 3.5; D 3.18
T14: M 2.72; Q 2.56; R 2.73; N 2.63; E 2.93; A 2.62; S 3.18; I 2.13; D 2.92; H 2.65; F 2.63; V 2.69; G 2.83; P 2.88
R11: H 3.73; F 1.85; L 3.11; A 3.42; V 3.46; Q 3.46; P 3.02; M 2.64; C 3.88; T 3.06; N 3.14
G4: D 3.24; L 2.02; H 2.93; W 2.07; C 2.49; Y 2.06; T 3.86; E 3.95
T6: K 2.14; S 2.18; E 3.05; G 2.84; Q 2.97; H 3.15; C 4.24; I 2.38; N 2.21; P 3.02; M 2.52; D 2.98; W 2.83; V 2.44; R 2.95; Y 2.33
S17: A 2.11; D 3.37; H 3.2; Q 2.97; Y 2.89; W 1.52; R 2.42; L 1.99; M 2.51
F16: Q 4.78; R 2.21; M 3.09; V 3; Y 2.99; W 2.1; A 3.85; N 3.58; L 3.79; G 3.84; T 3.91; I 2.67
R19: W 2.14; A 2.98; H 3.24; P 3.59; C 3.28; T 3.21; L 2.4; S 3.28; N 3.54; G 3.71
E5: M 1.87; Y 1.83; W 1.86; P 2.94; I 2.64; Q 2.07; F 2.74; H 2.77; K 2.2; N 2.69; A 2.78; V 1.92
C21: N 3.29; E 3.81; V 3.68; L 3.23; I 3.06; K 2.88; P 3.92; Q 3.67; A 3.46; M 3.61; H 2.62; S 3.53; F 3.27
Q7: R 2.26; H 3.23; K 2.4; T 2.69; C 3.6; I 1.97; P 2.77; Y 2.82; D 3.72; G 2.42; A 3.21; W 1.44; S 3.11
E8: I 2.69; W 1.65; R 2.78; C 2.17; D 3.46; N 2.46; K 2.12; H 1.97; M 1.62; A 2.03; L 1.89; V 1.71; S 2.39; F 1.67; Y 1.79
